# Columns and labels:
# [1] = target: T1, recombinant human FcγRI protein (ACRO Biosystems, Cat. FCA-H52H1) (human, UniProt P12314 16-288, limits assumed); experiment: BLI (ForteBio Octet Red 96), human FcγRI immobilised on HIS1K sensors, 100 nM antibody; FcγRI table
# T1 construct: also called human FcγRI receptor
# [2] = target: T2, recombinant human FcRn (ACROBiosystems Cat FCM-H8286) (human, UniProt P55899 24-297; P61769 21-119); experiment: BLI (ForteBio Octet Red 96), human FcRn immobilised on SA sensors, pH 6.0 buffer, 100 nM antibody; FcRn table
# T2 construct: also called human FcRn receptor
# [3] = target: T1, recombinant human FcγRI protein (ACRO …); experiment: BLI (ForteBio Octet Red 96), human FcγRI immobilised on HIS1K sensors, 100 nM antibody; FcγRI table, column Kdis
# [4] = target: T2, recombinant human FcRn (ACROBiosystems …); experiment: BLI (ForteBio Octet Red 96), human FcRn immobilised on SA sensors, pH 6.0 buffer, 100 nM antibody; FcRn table, column Kdis
# [5] = target: T3, Recombinant human EGFR protein (ACRO Biosystems, EGR-H5222) (human, UniProt P00533 25-645); experiment: ELISA, plate coated with recombinant human EGFR at 1 µg/mL, HRP-labelled secondary antibody, OD450; EGFR panel, table under the curves (unit from the concentration axis)
# T3 construct: Bought protein
# T1 sequence (P12314 16-288 limits assumed): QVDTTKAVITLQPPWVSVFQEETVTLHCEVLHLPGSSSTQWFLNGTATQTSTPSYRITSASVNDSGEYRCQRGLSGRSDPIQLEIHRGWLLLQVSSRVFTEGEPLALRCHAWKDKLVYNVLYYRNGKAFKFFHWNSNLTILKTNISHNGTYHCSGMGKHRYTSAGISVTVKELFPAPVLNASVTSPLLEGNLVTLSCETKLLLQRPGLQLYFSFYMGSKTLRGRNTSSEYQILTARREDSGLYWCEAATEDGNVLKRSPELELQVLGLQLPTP
Kd [1] [nM],kon [1] [M⁻¹ s⁻¹],Kd [2] [nM],kon [2] [M⁻¹ s⁻¹],koff [3] [s⁻¹],koff [4] [s⁻¹],EC50 [5] [µg/mL],Binder
10,459000,14.4,1.82e+06,0.00461,0.0261,0.017,"Fab-Fc/Fab-Fc bispecific antibody (zalutumumab anti-EGFR A half-antibody / pertuzumab anti-HER2 B half-antibody), M1 combination (K2/H2) (bispecific antibody, No linker named between Fab and Fc; also called M1 mutant combination) heavy 1: not shown light 1: not shown heavy 2: EVQLVESGGGLVQPGGSLRLSCAASGFTFTDYTMDWVRQAPGKGLEWVADVNPNSGGSIYNQRFKGRFTLSVDRSKNTLYLQMNSLRAEDTAVYYCARNLGPSFYFDYWGQGTLVTVSSASTKGPSVFPLAPSSKSTSGGTAALGCLVKDYFPEPVTVSWNSGALTSGVHTFPAVLQSSGLYSLSSVVTVPSSSLGTQTYICNVNHKPSNTKVDKKVEPKSCDKTHTCPPCPAPELLGGPSVFLFPPKPKDTLMISRTPEVTCVVVDVSHEDPEVKFNWYVDGVEVHNAKTKPREEQYNSTYRVVSVLTVLHQDWLNGKEYKCKVSNKALPAPIEKTISKAKGQPREPQVYTLPPSREEMTKNQVSLSCAVKGFYPSDIAVEWESNGQPENNYKTTPPVLRSDGSFFLVSKLTVDKSRWQQGNVFSCSVMHEALHNHYTQKSLSLSPGK light 2: not shown"
10,452000,17.6,1.69e+06,0.00453,0.0296,0.0206,"Fab-Fc/Fab-Fc bispecific antibody (zalutumumab anti-EGFR A half-antibody / pertuzumab anti-HER2 B half-antibody), M2 combination (K0/H8) (bispecific antibody, No linker named between Fab and Fc; also called M2 mutant combination) heavy 1: not shown light 1: not shown heavy 2: EVQLVESGGGLVQPGGSLRLSCAASGFTFTDYTMDWVRQAPGKGLEWVADVNPNSGGSIYNQRFKGRFTLSVDRSKNTLYLQMNSLRAEDTAVYYCARNLGPSFYFDYWGQGTLVTVSSASTKGPSVFPLAPSSKSTSGGTAALGCLVKDYFPEPVTVSWNSGALTSGVHTFPAVLQSSGLYSLSSVVTVPSSSLGTQTYICNVNHKPSNTKVDKKVEPKSCDKTHTCPPCPAPELLGGPSVFLFPPKPKDTLMISRTPEVTCVVVDVSHEDPEVKFNWYVDGVEVHNAKTKPREEQYNSTYRVVSVLTVLHQDWLNGKEYKCKVSNKALPAPIEKTISKAKGQPREPQVYTYPPSREEMTKNQVSLSCAVKGFYPSDIAVEWESNGQPENNYKTTPPVLDSDGSFFLVSKLTVDKSRWQQGNVFSCSVMHEALHNHYTQKSLSLSPGK light 2: not shown"
10.3,455000,17.7,1.55e+06,0.00471,0.0274,0.0221,"Fab-Fc/Fab-Fc bispecific antibody (zalutumumab anti-EGFR A half-antibody / pertuzumab anti-HER2 B half-antibody), M3 combination (K2/H7) (bispecific antibody, No linker named between Fab and Fc; also called M3 mutant combination) heavy 1: not shown light 1: not shown heavy 2: EVQLVESGGGLVQPGGSLRLSCAASGFTFTDYTMDWVRQAPGKGLEWVADVNPNSGGSIYNQRFKGRFTLSVDRSKNTLYLQMNSLRAEDTAVYYCARNLGPSFYFDYWGQGTLVTVSSASTKGPSVFPLAPSSKSTSGGTAALGCLVKDYFPEPVTVSWNSGALTSGVHTFPAVLQSSGLYSLSSVVTVPSSSLGTQTYICNVNHKPSNTKVDKKVEPKSCDKTHTCPPCPAPELLGGPSVFLFPPKPKDTLMISRTPEVTCVVVDVSHEDPEVKFNWYVDGVEVHNAKTKPREEQYNSTYRVVSVLTVLHQDWLNGKEYKCKVSNKALPAPIEKTISKAKGQPREPQVYTYPPSREEMTKNQVSLSCAVKGFYPSDIAVEWESNGQPENNYKTTPPVLRSDGSFFLVSKLTVDKSRWQQGNVFSCSVMHEALHNHYTQKSLSLSPGK light 2: not shown"
